Measured values published in patent US20170369572A1 (CELGENE, published 2017).

How the values were obtained:
[1] = target: T1, human CD47 on CCRF-CEM cells (human, UniProt Q08722 19-323); experiment: flow cytometry on CCRF-CEM cells, MFI against concentration, one site specific binding with Hill slope
T1 construct: Endogenous CD47 on the human T lymphoblast line CCRF-CEM (ATCC CCL-119); also called CD47-positive CCRF-CEM cells; CCRF-EM cells
Method: To obtain binding curves, sample variants were titrated 1:2 in FACS buffer (PBS 2% FCS) starting from a high concentration of ˜66 nM for each sample. 0.1×10⁶ CCRF-EM cells were plated in a 96 well plate and incubated in 50 μl FACS buffer containing the indicated concentration of sample variants for 1 hour in ice. Cells were then washed with 150 μ1 FACS buffer and incubated in 50 μl FACS buffer containing the secondary antibody (anti-human-IgG-PE, Jackson ImmunoResearch) diluted 1:100, for 1 hr in ice. Cells were then washed with FACS buffer and fixed in 2% PFA for acquisition with LSR II, DB flow cytometer (BD Biosciences, San Jose, Calif.). Flow Cytometry analysis was performed using FloJo software Version 9.6.4. To obtain titration curves and Kd, Mean Fluorescence Intensity (MFI) values were plotted against concentration (nM). Kd values were calculated using Prism 6, Non linear regression curve fit analysis, One Site Specific Binding with Hill Slope.

human C1q = target: T2, human C1q (human, UniProt P02745 23-245; P02746 28-253; P02747 29-245); experiment: C1q binding ELISA, antibody coated and titrated from 133.4 nM, human C1q at 2 µg/mL, detected with anti-C1q HRP
T2 construct: also called C1q (AbD Serotec 2221-5504)
T2 sequence (P02745 23-245 limits assumed, chain 1 of 3): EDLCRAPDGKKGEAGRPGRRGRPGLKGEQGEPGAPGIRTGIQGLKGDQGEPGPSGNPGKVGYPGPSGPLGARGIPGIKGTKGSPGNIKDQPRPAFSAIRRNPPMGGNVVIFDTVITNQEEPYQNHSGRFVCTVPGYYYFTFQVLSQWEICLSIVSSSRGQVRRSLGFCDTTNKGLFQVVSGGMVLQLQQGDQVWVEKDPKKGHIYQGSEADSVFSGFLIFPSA
T2 sequence (P02746 28-253 limits assumed, chain 2 of 3): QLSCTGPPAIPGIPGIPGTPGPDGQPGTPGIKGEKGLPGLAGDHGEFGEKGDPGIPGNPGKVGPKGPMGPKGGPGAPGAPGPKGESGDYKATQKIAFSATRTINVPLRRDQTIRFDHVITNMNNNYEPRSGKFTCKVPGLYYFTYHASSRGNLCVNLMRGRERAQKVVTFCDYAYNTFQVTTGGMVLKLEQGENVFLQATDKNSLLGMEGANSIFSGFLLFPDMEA
T2 sequence (P02747 29-245 limits assumed, chain 3 of 3): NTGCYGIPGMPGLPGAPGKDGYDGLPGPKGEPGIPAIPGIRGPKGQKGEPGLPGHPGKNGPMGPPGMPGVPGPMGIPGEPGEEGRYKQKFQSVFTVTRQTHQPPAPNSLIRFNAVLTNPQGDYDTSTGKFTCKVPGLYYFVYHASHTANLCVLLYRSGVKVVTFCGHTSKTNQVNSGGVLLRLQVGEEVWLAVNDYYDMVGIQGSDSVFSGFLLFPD
Method: Method: 96-well high protein binding ELISA plates (MaxSorp Nunc) were coated overnight at 4° C. with sample anti-CD47 antibody variants diluted in 0.05 M Sodium Bicarbonate Buffer (pH 9). Samples were diluted at a high concentration of 133.4 nM (20 μg/ml) and titrated 1:2 in an 11-point dilution curve. Plates were washed three times in PBS, 0.05% Tween 20 and blocked for 1 hour at room temperature with ELISA Diluent (0.1 M NAPO₄, 0.1 M NaCl, 0.1% gelatin, 0.05% Tween 20, 0.05% ProClin300). Plates were then washed again three times and incubated for two hours at room temperature with 2 μg/mL human C1q (AbD Serotec 2221-5504, 1 mg/mL stock) diluted in ELISA Diluent. Plates were then washed three times and incubated with sheep anti-human C1q HRP (AbD Serotec 2221-5004P) diluted 1:200 in ELISA Diluent for 1 hour at room temperature to detect bound Clq. Plates were then washed three times, then 100 μL of TMB solution was added. Reaction was quenched by adding 100 μl of 1M Phosphoric Acid and plate was read at 450 nm. Data are plotted using Prism6 as non-linear regression with log (inhibitor) vs. response—Variable slope (four parameters).

B1: anti-CD47 antibody IgG1-parental, CHO expressed (antibody)
VH: not shown
VL: NIQMTQSPSAMSASVGDRVTITCKASQDIHRYLSWFQQKPGKVPKHLIYRANRLVSGVPSRFSGSGSGTEFTLTISSLQPEDFATYYCLQYDEFPYTFGGGTKVEIKRTVAAPSVFIFPPSDEQLKSGTASVVCLLNNFYPREAKVQWKVDNALQSGNSQESVTEQDSKDSTYSLSSTLTLSKADYEKHKVYACEVTHQGLSSPVTKSFNRGEC
notes: Parental antibody as IgG1, made in CHO cells; also called IgG1-QN1-CHO
- Kd [1]: 0.18 nM
- EC50 (human C1q): 3.6 nM
